Results as given in patent US7667021 (dated 2010).
Values belong to the binder of their own block, whether it stands above or below them.

Tests used:
IGFR1 [1] = target: IGFR1 (human); assay: SPR, 25C
IGFR1 [2] = target: IGFR1 (human); assay: SPR, 37C

Sequence of IGFR1 (human) (B1B5Y2 whole entry): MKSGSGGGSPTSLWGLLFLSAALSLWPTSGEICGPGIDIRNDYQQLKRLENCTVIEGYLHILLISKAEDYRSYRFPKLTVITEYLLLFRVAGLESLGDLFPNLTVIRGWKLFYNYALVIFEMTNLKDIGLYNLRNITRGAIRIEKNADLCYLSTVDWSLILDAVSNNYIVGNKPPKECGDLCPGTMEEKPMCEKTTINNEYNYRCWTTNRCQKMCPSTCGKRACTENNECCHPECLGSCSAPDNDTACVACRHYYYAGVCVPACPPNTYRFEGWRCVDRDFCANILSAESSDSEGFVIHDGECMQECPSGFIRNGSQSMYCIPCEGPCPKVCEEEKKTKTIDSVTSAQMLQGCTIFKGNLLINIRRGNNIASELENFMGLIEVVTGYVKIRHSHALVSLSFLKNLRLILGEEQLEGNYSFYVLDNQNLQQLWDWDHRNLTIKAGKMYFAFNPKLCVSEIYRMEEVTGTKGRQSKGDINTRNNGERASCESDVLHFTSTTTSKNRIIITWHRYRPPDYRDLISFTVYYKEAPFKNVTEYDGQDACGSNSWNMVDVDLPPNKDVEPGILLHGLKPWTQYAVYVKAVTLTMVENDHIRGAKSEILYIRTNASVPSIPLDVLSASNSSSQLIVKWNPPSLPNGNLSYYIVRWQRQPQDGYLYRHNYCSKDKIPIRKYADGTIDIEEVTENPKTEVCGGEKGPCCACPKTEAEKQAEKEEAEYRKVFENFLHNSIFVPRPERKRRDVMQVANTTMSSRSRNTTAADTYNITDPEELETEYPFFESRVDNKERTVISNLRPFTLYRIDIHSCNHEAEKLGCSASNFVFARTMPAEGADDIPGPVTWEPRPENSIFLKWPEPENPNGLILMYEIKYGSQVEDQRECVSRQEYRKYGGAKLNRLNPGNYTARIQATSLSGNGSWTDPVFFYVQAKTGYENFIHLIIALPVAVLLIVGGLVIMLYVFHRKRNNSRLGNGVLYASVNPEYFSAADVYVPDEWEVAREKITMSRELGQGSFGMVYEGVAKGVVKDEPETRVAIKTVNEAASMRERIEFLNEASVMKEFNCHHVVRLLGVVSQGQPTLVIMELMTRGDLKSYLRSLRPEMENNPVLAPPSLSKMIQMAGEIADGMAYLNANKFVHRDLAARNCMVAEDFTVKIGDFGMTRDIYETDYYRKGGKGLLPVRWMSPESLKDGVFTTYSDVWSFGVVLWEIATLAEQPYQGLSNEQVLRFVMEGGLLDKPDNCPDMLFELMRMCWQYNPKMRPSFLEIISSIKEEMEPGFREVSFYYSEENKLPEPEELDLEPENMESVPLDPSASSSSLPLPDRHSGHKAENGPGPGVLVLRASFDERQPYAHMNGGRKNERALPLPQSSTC

Kd (IGFR1 [1]): 0.86 nM
B1: 1H3 (antibody, V domains shown)
VH: EVQLVQSGGGLVLPGGSLRLSCAGSGFTFSNYAMHWIRQAPGKGLEWVSAIGAGGDTYYADSVKGRFTISRDNAKDSLYLQMNSLRAEDMAVYYCARGRHRNWYYYNKDYWGQGTLVTVSS
VL: EIVLTQSPATLSLSPGERATLSCRASQSVSSFLAWYQQKPGQAPRLLIYDASNRAPGIPARFSGSGSGTDFTLTISSLEPEDFAVYYCQQRSNWPRWTFGQGTKVEIKR

Kd (IGFR1 [1]): 0.0592 nM | Kd (IGFR1 [2]): 0.0722 nM
B2: 19D12 (antibody, V domains shown)
VH: EVQLVQSGGGLVHPGGSLRLSCAASGFTFSSFAMHWVRQAPGKGLEWISVIDTRGATYYADSVKGRFTISRDNAKNSLYLQMNSLRAEDMAVYYCARLGNFYYGMDVWGQGTTVTVSS
VL: EIVLTQVPDFQSVTPKEKVTITCRASQSIGSSLHWYQQKPDQSPKLLIKYASQSLSGVPSRFSGSGSGTDFTLTINSLEAEDAAAYYCHQSSRLPHTFGGGTKVEIKR

Kd (IGFR1 [1]): 0.0448 nM | Kd (IGFR1 [2]): 0.0557 nM
B3: 15H12 (antibody, V domains shown)
VH: B2 VH
VL: B2 VL
